# Experimental data reported in patent publication US20180009881A1 (VHSQUARED, published 2018).
# Numbering of substitutions follows the chain as printed. Names may count otherwise. Where two headings read alike, the source gives them in different places.
# T1: recombinant soluble human IL-6R (human, UniProt P08887 20-365)
# T1 construct: extracellular domain; Printed only as 'soluble'; read as the extracellular domain; also called hIL-6R; sIL-6R
# T1 sequence (looked up): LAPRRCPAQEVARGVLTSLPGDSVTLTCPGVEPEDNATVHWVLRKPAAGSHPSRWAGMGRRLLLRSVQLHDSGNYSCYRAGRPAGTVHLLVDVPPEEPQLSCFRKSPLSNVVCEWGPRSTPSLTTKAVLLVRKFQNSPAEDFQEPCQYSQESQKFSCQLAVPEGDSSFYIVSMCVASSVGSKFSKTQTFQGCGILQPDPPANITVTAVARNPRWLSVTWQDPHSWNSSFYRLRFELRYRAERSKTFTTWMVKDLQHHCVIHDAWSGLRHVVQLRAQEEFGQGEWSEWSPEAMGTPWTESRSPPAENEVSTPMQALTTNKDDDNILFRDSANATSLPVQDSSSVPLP
# B1: anti-TNF-alpha ICVD ID8F-EV (VHH)
# VHH: EVQLVESGGGLVQPGGSLKLSCAASGFDFSSHWMYWVRQAPGKELEWLSEINTNGLITHYGDSVKGRFTVSRNNAANKMYLELTRLEPEDTALYYCARNQKGLNKGQGTQVTVSS
# notes: also called Q65B1 with a K59H substitution; K59H; not shown: C-terminal Flag-His6 tag
# B2: anti-TNF-alpha ICVD ID43F (VHH)
# VHH: B1 VHH with H59A
# notes: also called Q65B1 with a K59A substitution; K59A; not shown: C-terminal Flag-His6 tag
# B3: anti-TNF-alpha ICVD Q65B1 (VHH)
# VHH: B1 VHH with H59K
# notes: also called K59; not shown: C-terminal Flag-His6 tag
# B4: anti-TNF-alpha ICVD ID44F (VHH)
# VHH: B1 VHH with H59Q
# notes: also called Q65B1 with a K59Q substitution; K59Q; not shown: C-terminal Flag-His6 tag
# B5: anti-TNF-alpha ICVD ID34F (VHH)
# VHH: B1 VHH with K101H
# notes: also called Q65B1 with K59H and K101H
# B6: anti-IL-6R ICVD 7F6 (VHH)
# VHH: EVQLVESGGGLVQAGGSTRLTCLASGSISSINVIGWYRQAPGKQRELVAMIGRGEGANYGDFAKGRFTISRDNSKNTVYLQMNSLKPEDTAVYYCYADYEDRDSPFNGSWGQGTQVTVSS
# B7: anti-IL-6R ICVD ID-3V (VHH)
# VHH: B6 VHH with R102H
# notes: also called 7F6 with R102H
# B8: anti-IL-6R ICVD 5G9 (VHH)
# VHH: EVQLVESGGGLVQAGGSTRLTCKASGSIFNINSINVMAWYRQAPGKQRELVAIIGKGGGTNYADFVKGRFTISRDAAKNTVNLQMNSLKPEDTAVYYCYADYEDRDSPFNASWGQGTQVTVSS
# B9: anti-IL-6R ICVD ID-54V (VHH)
# VHH: B8 VHH with R105H
# notes: also called 5G9 with R105H
# Assays:
# recombinant human TNF [1] = biological target: T2, recombinant human TNF (human, UniProt P01375 77-233); experiment: Standard TNFR2/TNF interference ELISA: ICVD mixed with human TNF, TNF captured on coated Enbrel (competition)
# T2 construct: also called TNF-alpha; TNFα
# recombinant human TNF [2] = biological target: T2, recombinant human TNF; experiment: Standard TNFR2/TNF interference ELISA (competition), against ID32F
# [3] = biological target: T1, recombinant soluble human IL-6R; experiment: Standard gp130 ELISA: ICVD mixed with soluble human IL-6R, then IL-6; complex captured on coated gp130 (competition)
# [4] = biological target: T1, recombinant soluble human IL-6R; experiment: as above; remark: listed apart in the source
# T2 sequence (P01375 77-233 limits assumed): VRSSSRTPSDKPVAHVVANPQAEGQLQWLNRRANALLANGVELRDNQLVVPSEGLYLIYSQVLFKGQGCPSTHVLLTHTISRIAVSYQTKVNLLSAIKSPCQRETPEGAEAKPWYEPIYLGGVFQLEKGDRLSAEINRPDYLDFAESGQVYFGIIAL
binder,measurement,setting,value
B1,EC50,recombinant human TNF [1],0.139 nM
B2,EC50,recombinant human TNF [1],0.603 nM
B3,EC50,recombinant human TNF [1],0.0984 nM
B4,EC50,recombinant human TNF [1],0.245 nM
B5,binding result,recombinant human TNF [2],binds
B6,EC50,[3],0.15 nM
B7,EC50,[3],0.16 nM
B8,EC50,[4],0.09 nM
B9,EC50,[4],0.15 nM
